# Assay results taken from patent publication US20110263454A1, “Methods of Identifying Functional Characteristics of Promoters, Transcription Modifying Proteins and Transcription Modulating Agents” (Salk Institute for Biological Studies, priority 2008, published 2011).
# B1: PR: Progesterone Receptor (NR3C3), cDNA driver (protein, UniProt P06401 1-933, looked up)
# Progesterone receptor: MTELKAKGPRAPHVAGGPPSPEVGSPLLCRPAAGPFPGSQTSDTLPEVSAIPISLDGLLFPRPCQGQDPSDEKTQDQQSLSDVEGAYSRAEATRGAGGSSSSPPEKDSGLLDSVLDTLLAPSGPGQSQPSPPACEVTSSWCLFGPELPEDPPAAPATQRVLSPLMSRSGCKVGDSSGTAAAHKVLPRGLSPARQLLLPASESPHWSGAPVKPSPQAAAVEVEEEDGSESEESAGPLLKGKPRALGGAAAGGGAAAVPPGAAAGGVALVPKEDSRFSAPRVALVEQDAPMAPGRSPLATTVMDFIHVPILPLNHALLAARTRQLLEDESYDGGAGAASAFAPPRSSPCASSTPVAVGDFPDCAYPPDAEPKDDAYPLYSDFQPPALKIKEEEEGAEASARSPRSYLVAGANPAAFPDFPLGPPPPLPPRATPSRPGEAAVTAAPASASVSSASSSGSTLECILYKAEGAPPQQGPFAPPPCKAPGASGCLLPRDGLPSTSASAAAAGAAPALYPALGLNGLPQLGYQAAVLKEGLPQVYPPYLNYLRPDSEASQSPQYSFESLPQKICLICGDEASGCHYGVLTCGSCKVFFKRAMEGQHNYLCAGRNDCIVDKIRRKNCPACRLRKCCQAGMVLGGRKFKKFNKVRVVRALDAVALPQPVGVPNESQALSQRFTFSPGQDIQLIPPLINLLMSIEPDVIYAGHDNTKPDTSSSLLTSLNQLGERQLLSVVKWSKSLPGFRNLHIDDQITLIQYSWMSLMVFGLGWRSYKHVSGQMLYFAPDLILNEQRMKESSFYSLCLTMWQIPQEFVKLQVSQEEFLCMKVLLLLNTIPLEGLRSQTQFEEMRSSYIRELIKAIGLRQKGVVSSSQRFYQLTKLLDNLHDLVKQLHLYCLNTFIQSRALSVEFPEMMSEVIAAQLPKILAGMVKPLLFHKK
# B2: NR4a2: NR4a2 (NR4A2; NURR1), nuclear hormone receptor cDNA driver (protein, UniProt P43354 1-598, looked up)
# Nuclear receptor subfamily 4 …: MPCVQAQYGSSPQGASPASQSYSYHSSGEYSSDFLTPEFVKFSMDLTNTEITATTSLPSFSTFMDNYSTGYDVKPPCLYQMPLSGQQSSIKVEDIQMHNYQQHSHLPPQSEEMMPHSGSVYYKPSSPPTPTTPGFQVQHSPMWDDPGSLHNFHQNYVATTHMIEQRKTPVSRLSLFSFKQSPPGTPVSSCQMRFDGPLHVPMNPEPAGSHHVVDGQTFAVPNPIRKPASMGFPGLQIGHASQLLDTQVPSPPSRGSPSNEGLCAVCGDNAACQHYGVRTCEGCKGFFKRTVQKNAKYVCLANKNCPVDKRRRNRCQYCRFQKCLAVGMVKEVVRTDSLKGRRGRLPSKPKSPQEPSPPSPPVSLISALVRAHVDSNPAMTSLDYSRFQANPDYQMSGDDTQHIQQFYDLLTGSMEIIRGWAEKIPGFADLPKADQDLLFESAFLELFVLRLAYRSNPVEGKLIFCNGVVLHRLQCVRGFGEWIDSIVEFSSNLQNMNIDISAFSCIAALAMVTERHGLKEPKRVEELQNKIVNCLKDHVTFNNGGLNRPNYLSKLLGKLPELRTLCTQGLQRIFYLKLEDLVPPPAIIDKLFLDTLPF
# B3: NR4a3: NR4a3 (NR4A3; NOR1), nuclear hormone receptor cDNA driver (protein, UniProt Q92570 1-626, looked up)
# Nuclear receptor subfamily 4 …: MPCVQAQYSPSPPGSSYAAQTYSSEYTTEIMNPDYTKLTMDLGSTEITATATTSLPSISTFVEGYSSNYELKPSCVYQMQRPLIKVEEGRAPSYHHHHHHHHHHHHHHQQQHQQPSIPPASSPEDEVLPSTSMYFKQSPPSTPTTPAFPPQAGALWDEALPSAPGCIAPGPLLDPPMKAVPTVAGARFPLFHFKPSPPHPPAPSPAGGHHLGYDPTAAAALSLPLGAAAAAGSQAAALESHPYGLPLAKRAAPLAFPPLGLTPSPTASSLLGESPSLPSPPSRSSSSGEGTCAVCGDNAACQHYGVRTCEGCKGFFKRTVQKNAKYVCLANKNCPVDKRRRNRCQYCRFQKCLSVGMVKEVVRTDSLKGRRGRLPSKPKSPLQQEPSQPSPPSPPICMMNALVRALTDSTPRDLDYSRYCPTDQAAAGTDAEHVQQFYNLLTASIDVSRSWAEKIPGFTDLPKEDQTLLIESAFLELFVLRLSIRSNTAEDKFVFCNGLVLHRLQCLRGFGEWLDSIKDFSLNLQSLNLDIQALACLSALSMITERHGLKEPKRVEELCNKITSSLKDHQSKGQALEPTESKVLGALVELRKICTLGLQRIFYLKLEDLVSPPSIIDKLFLDTLPF
# B4: GCNF: Germ Cell Nuclear Factor (NR6A1, GCNF1), cDNA driver (protein, UniProt Q15406 1-480, looked up)
# Nuclear receptor subfamily 6 …: MERDEPPPSGGGGGGGSAGFLEPPAALPPPPRNGFCQDELAELDPGTISVSDDRAEQRTCLICGDRATGLHYGIISCEGCKGFFKRSICNKRVYRCSRDKNCVMSRKQRNRCQYCRLLKCLQMGMNRKAIREDGMPGGRNKSIGPVQISEEEIERIMSGQEFEEEANHWSNHGDSDHSSPGNRASESNQPSPGSTLSSSRSVELNGFMAFREQYMGMSVPPHYQYIPHLFSYSGHSPLLPQQARSLDPQSYSLIHQLLSAEDLEPLGTPMLIEDGYAVTQAELFALLCRLADELLFRQIAWIKKLPFFCELSIKDYTCLLSSTWQELILLSSLTVYSKQIFGELADVTAKYSPSDEELHRFSDEGMEVIERLIYLYHKFHQLKVSNEEYACMKAINFLNQDIRGLTSASQLEQLNKRYWYICQDFTEYKYTHQPNRFPDLMMCLPEIRYIAGKMVNVPLEQLPLLFKVVLHSCKTSVGKE
# B5: DAX-1: DAX1 (NR0B1), cDNA driver (protein, UniProt P51843 1-470, looked up)
# Nuclear receptor subfamily 0 …: MAGENHQWQGSILYNMLMSAKQTRAAPEAPETRLVDQCWGCSCGDEPGVGREGLLGGRNVALLYRCCFCGKDHPRQGSILYSMLTSAKQTYAAPKAPEATLGPCWGCSCGSDPGVGRAGLPGGRPVALLYRCCFCGEDHPRQGSILYSLLTSSKQTHVAPAAPEARPGGAWWDRSYFAQRPGGKEALPGGRATALLYRCCFCGEDHPQQGSTLYCVPTSTNQAQAAPEERPRAPWWDTSSGALRPVALKSPQVVCEAASAGLLKTLRFVKYLPCFQVLPLDQQLVLVRNCWASLLMLELAQDRLQFETVEVSEPSMLQKILTTRRRETGGNEPLPVPTLQHHLAPPAEARKVPSASQVQAIKCFLSKCWSLNISTKEYAYLKGTVLFNPDVPGLQCVKYIQGLQWGTQQILSEHTRMTHQGPHDRFIELNSTLFLLRFINANVIAELFFRPIIGTVSMDDMMLEMLCTKI
# Tested on: mDio1 promoter
# Test: NHR-promoter luciferase screen, mDio1 promoter
# Assay type: cell-based, mouse
# Conditions: Dio1; HR component without or with its ligand
# Method in brief: (§1)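 CV-1 cells were co-transfected with 50 ng NHR (homodimer or NHR/RXR heterodimer), 100 ng promoter-luciferase construct and 50 ng LacZ. Luciferase was normalized to LacZ and to a no-NHR/no-ligand control.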
Molecule,"Luc. act., normalized to lacZ","Normalized Luc. act., normalized to control"
B1,7.8,1.8
B2,6.3,1.4
B3,6.6,1.5
B4,5.1,1.1
B5,8.9,2.0

# Same assay, conditions: transcription factor +/- ligand; control = 1.00
row,Molecule,mDio1 promoter reporter activity
1,B1,1.75
2,B2,1.41
3,B3,1.48
4,B4,1.13
5,B5,2.00

# Tested on: mCAR promoter
# Test: NHR-promoter luciferase screen, mCAR promoter
# Assay type: cell-based, mouse
# Conditions: mCAR promoter-luciferase, CV-1 cells, NHR +/- ligand, control = 1.00
# Method in brief: as §1
row,Molecule,"luciferase activity normalized to lacZ activity and to a control, mCAR"
1,B1,0.98
2,B2,0.57
3,B3,0.57
4,B4,0.78
5,B5,0.96

# Same assay, conditions: mCAR promoter; HR/ligand component
Molecule,"Luc. act., normalized to lacZ","Normalized Luc. act., normalized to control"
B1,37.53,1.0
B2,21.74,0.6
B3,21.58,0.6
B4,29.68,0.8
B5,36.74,1.0

# Tested on: mDio2 promoter
# Test: NHR-promoter luciferase screen, mDio2 promoter
# Assay type: cell-based, mouse
# Conditions: Dio2; HR component without or with its ligand
# Method in brief: as §1
Molecule,"Luc. act., normalized to lacZ","Normalized Luc. act., normalized to control"
B1,21.4,1.4
B2,12.4,0.8
B3,14.8,0.9
B4,22.7,1.4
B5,18.7,1.2

# Same assay, conditions: transcription factor +/- ligand; control = 1.00
row,Molecule,mDio2 promoter reporter activity
1,B1,1.36
2,B2,0.79
3,B3,0.94
4,B4,1.44
5,B5,1.19

# Tested on: mPOMC promoter
# Test: NHR-promoter luciferase screen, mPOMC promoter
# Assay type: cell-based, mouse
# Conditions: Table 6d; luciferase activity relative to control (control = 1.00)
# Method in brief: as §1
row,Molecule,Results of assays of transcription factor (+/- ligand) with mPOMC
1,B1,1.10
2,B2,1.05
3,B3,0.87
4,B4,0.61
5,B5,0.92

# Same assay, conditions: mPOMC promoter; HR component with or without ligand
row,Molecule,"Luc. act., normalized to lacZ"
1,B1,75.8
2,B2,72.2
3,B3,59.7
4,B4,42.0
5,B5,63.4

# Same assay, conditions: mPOMC promoter; HR component with or without ligand; relative to control
row,Molecule,"Normalized Luc. act., normalized to control"
1,B1,1.1
2,B2,1.0
3,B3,0.9
4,B4,0.6
5,B5,0.9

# Tested on: RevErba promoter
# Test: NHR-promoter luciferase screen, RevErba (RVRa) promoter
# Assay type: cell-based
# Parameters: key to mRevErba promoter reporter activity / Normalized Luc. act., normalized to control: luciferase activity normalized to lacZ and to control (no NHR/ligand)
# Conditions: RVRa promoter; HR component without or with ligand
# Method in brief: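 Reporter readout: RevErbα promoter-driven luciferase, corrected for LacZ transfection efficiency and expressed relative to a no-receptor or no-ligand control. Receptors (V5H6-tagged, pcDNA3.1), alone or with RXR, plus any ligand, were expressed in CV-1 cells.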
Molecule,"Luc. act., normalized to lacZ","Normalized Luc. act., normalized to control"
B1,24.1,0.9
B2,20.6,0.7
B3,14.7,0.5
B4,25.7,0.9
B5,29.4,1.1

# Same assay, conditions: RVRa promoter; given only where activity is below control
row,Molecule,negative reciprocal of normalized Luc. act. (fold repression; Table 33)
1,B1,−1.16
2,B2,−1.357
3,B3,−1.9
4,B4,−1.087

# Same assay, conditions: RVRa promoter; log10 of activity normalized to control
row,Molecule,"normalized Luc. act. on a logarithmic scale (column without head, Table 33)"
1,B1,−0.06
2,B2,−0.13
3,B3,−0.28
4,B4,−0.04
5,B5,0.02

# Same assay, conditions: transcription factor +/- ligand; control = 1.00
row,Molecule,mRevErba promoter reporter activity
1,B1,0.86
2,B2,0.74
3,B3,0.53
4,B4,0.92
5,B5,1.05
